How the values were obtained:
Experiment in all cases: cryo-EM structure
[1] = biological target: T1, Sth1 (yeast, UniProt P32597 1-1359)
T1 sequence: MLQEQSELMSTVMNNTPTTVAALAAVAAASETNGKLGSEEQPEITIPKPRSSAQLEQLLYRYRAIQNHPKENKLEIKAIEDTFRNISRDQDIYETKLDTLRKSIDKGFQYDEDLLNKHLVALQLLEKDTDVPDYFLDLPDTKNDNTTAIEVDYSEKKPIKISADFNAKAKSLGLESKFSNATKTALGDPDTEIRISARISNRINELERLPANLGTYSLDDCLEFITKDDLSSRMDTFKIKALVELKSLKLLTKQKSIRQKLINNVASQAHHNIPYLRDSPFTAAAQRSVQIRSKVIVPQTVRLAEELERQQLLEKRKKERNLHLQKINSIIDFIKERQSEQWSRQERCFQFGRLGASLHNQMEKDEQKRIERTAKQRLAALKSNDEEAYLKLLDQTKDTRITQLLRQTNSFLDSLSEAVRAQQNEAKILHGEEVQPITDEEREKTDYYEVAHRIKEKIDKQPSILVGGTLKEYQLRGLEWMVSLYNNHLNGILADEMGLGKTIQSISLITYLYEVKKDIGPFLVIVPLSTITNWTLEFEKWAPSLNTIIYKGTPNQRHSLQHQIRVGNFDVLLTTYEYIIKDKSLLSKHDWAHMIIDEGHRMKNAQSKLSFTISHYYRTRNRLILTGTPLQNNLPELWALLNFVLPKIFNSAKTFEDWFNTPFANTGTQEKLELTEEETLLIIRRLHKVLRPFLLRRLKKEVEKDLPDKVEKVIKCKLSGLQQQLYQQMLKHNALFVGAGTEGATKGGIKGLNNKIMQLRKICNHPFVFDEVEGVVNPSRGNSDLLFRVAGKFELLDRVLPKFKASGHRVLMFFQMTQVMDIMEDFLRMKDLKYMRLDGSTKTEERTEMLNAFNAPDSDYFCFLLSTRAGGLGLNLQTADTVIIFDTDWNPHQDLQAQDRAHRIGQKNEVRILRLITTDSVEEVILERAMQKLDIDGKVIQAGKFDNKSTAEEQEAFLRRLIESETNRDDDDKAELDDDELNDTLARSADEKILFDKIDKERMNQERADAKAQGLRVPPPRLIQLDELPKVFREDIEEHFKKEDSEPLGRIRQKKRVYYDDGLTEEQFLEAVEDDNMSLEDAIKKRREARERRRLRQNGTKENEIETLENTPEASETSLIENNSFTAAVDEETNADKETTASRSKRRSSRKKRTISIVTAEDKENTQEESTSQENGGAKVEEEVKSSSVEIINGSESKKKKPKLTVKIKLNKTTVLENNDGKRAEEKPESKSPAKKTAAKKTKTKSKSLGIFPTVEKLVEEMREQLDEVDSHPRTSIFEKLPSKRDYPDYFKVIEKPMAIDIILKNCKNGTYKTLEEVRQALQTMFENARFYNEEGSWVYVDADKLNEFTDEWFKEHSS

[2] = biological target: T2, Rsc30 (yeast, UniProt P38781 1-883)
T2 sequence: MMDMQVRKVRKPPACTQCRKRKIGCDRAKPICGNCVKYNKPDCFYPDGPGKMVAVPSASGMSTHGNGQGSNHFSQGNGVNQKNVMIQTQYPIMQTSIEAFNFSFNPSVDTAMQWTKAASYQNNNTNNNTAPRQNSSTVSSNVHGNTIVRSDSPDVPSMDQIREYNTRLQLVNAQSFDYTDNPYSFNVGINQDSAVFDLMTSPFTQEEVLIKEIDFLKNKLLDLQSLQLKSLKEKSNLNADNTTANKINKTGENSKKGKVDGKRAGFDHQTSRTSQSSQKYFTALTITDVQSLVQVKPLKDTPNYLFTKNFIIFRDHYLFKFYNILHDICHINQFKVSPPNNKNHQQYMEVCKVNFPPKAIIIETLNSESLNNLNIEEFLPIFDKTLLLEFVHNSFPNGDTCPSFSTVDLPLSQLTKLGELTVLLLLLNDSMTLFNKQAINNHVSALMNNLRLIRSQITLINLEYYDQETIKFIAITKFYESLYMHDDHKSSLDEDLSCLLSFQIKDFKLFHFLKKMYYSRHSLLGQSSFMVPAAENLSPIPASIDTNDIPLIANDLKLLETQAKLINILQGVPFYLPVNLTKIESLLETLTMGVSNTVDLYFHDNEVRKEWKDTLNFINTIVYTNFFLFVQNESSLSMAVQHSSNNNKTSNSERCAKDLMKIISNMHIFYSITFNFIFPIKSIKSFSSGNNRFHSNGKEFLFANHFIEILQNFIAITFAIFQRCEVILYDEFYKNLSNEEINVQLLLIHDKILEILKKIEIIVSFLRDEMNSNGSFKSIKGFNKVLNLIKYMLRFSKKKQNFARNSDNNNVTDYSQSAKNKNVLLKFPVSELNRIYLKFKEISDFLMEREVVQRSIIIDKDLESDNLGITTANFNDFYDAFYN

[3] = biological target: T3, Rsc3 (yeast, UniProt Q06639 1-885)
T3 sequence: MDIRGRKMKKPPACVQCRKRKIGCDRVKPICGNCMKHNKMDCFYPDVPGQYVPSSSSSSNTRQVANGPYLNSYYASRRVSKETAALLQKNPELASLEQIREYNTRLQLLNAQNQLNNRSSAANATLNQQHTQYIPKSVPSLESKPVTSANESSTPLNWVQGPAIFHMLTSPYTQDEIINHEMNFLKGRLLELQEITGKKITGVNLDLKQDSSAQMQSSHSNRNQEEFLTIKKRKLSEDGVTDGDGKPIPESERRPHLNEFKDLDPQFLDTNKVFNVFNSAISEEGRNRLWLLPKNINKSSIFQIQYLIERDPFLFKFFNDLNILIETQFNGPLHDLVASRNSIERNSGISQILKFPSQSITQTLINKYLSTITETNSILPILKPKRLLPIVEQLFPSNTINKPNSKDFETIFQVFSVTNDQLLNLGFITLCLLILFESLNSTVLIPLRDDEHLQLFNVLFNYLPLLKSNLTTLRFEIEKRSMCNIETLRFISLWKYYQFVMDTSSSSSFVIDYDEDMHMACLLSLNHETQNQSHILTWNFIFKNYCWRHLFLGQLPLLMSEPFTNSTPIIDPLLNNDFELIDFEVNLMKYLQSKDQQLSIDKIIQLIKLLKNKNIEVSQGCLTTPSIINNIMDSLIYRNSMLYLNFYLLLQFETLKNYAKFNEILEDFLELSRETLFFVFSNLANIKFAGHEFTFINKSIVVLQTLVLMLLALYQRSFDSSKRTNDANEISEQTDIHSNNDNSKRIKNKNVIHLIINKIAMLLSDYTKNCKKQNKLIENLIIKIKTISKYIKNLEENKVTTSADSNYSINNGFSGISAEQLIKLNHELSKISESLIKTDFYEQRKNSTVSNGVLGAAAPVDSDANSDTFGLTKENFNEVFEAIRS

Measured: binding result

B1: Rsc9 (natural protein, yeast)
chain: MNSLASNTPLNGTPVSEAPATSSEPVNMFETMVANPIKVSRLQSNGVLTGPAANTKSIHYSLANFNVFQSLPKETARGVDDLTRMEMALLSGIPEEIKWSLKKYLTYSNKAPYMISLRTLPDLLPLFKTFILPLERIVEGLNKSSICDSKAMDSLQMGLNALLILRNLAQDTDSVQILVKDREIKSFILFILKKFQCVATGDNKWQLYEGNATFFNELTHYTLDLMEAISSYIAPAMKDDHYFQTLVSILNYTKDRYMVISILRSLSRLLVRSKANEESAADNLDHKTLSLIVSFLLLECDSELIIASLDFLYQYILPGSQRITELFKSKECSLILEATLPNLLSYNIATPDYHLLQKHKIRLIKRLKPPAPKEPPNLSEDLFQQLFKLNEPLRSTAWLRCCFEPVQEAEFTQISLWRSYESKFGQPVRESGRKLLPAVEFIKNVSNAFNNAAAIVITDPVTGKKRFVIKGIQPRFKALGIADGERESQVPISALKSKFLNDSKEITPARQNSIPEVKFPQELSDVSKVACTFLCLLSNDTDDGAGSAFCQRIRPLVLHKLADIPPLTLALSEYMENTSGL
binds: all assays above

Source: paper PMC8442553 (Science (New York, N.Y.), 2019)
